Earlier results as cited in paper PMC8671138.

Target: CD47 (Homo sapiens) (UniProt Q08722)
Sequence of UniProt Q08722 (Q08722 19-323): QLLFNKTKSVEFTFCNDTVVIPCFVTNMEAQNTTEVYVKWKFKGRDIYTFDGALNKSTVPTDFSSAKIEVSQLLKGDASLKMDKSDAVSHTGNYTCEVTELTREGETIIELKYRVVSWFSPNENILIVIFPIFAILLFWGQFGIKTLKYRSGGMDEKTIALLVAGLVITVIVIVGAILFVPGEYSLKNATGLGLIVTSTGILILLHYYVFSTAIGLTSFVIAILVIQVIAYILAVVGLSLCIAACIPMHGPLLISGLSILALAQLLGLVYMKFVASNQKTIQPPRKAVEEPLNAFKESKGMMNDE

Substance: SIRPα (from UniProt P78324)
- Kd: 2 µM
